In patent US20230203185A1 (ECO ANIMAL HEALTH, published 2023):

T1: porcine CD163 with deletion of SRCR domain 5 on porcine alveolar macrophages (porcine, UniProt Q2VL90 47-1115)
T1 construct: also called PAM CD163-d5; pPAMΔ5 domain
T1 sequence: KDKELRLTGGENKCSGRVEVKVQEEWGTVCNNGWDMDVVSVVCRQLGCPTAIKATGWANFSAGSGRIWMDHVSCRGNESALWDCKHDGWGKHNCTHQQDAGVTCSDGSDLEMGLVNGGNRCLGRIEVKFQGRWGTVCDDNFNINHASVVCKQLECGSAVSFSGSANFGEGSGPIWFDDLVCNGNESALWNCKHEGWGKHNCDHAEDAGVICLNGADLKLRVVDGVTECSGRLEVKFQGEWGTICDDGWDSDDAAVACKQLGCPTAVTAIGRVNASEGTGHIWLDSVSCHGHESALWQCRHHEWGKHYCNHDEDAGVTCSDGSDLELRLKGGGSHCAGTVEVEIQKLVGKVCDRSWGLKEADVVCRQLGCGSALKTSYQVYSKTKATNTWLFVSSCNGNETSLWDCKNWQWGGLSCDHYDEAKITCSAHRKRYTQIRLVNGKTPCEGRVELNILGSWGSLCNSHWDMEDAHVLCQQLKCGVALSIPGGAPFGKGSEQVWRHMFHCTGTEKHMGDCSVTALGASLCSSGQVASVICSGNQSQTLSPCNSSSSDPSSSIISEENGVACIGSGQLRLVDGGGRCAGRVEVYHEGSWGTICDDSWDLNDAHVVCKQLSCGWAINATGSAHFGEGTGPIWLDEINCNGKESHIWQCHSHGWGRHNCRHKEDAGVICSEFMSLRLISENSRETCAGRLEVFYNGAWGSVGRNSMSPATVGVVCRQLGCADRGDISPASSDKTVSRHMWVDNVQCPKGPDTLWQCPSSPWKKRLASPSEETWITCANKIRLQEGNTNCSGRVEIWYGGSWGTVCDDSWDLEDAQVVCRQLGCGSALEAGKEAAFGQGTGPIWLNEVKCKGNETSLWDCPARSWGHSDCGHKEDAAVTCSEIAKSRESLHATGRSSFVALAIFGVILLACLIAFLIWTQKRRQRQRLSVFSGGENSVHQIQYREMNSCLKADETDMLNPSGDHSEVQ


How the values were obtained:
[1] = biological target: control human IgG (human); assay: ELISA, periplasmic extract on control IgG
[2] = biological target: T1, porcine CD163 with deletion of SRCR …; assay: flow cytometry on PAM with deletion of SRCR5
Protocol: Periplasmic Extract (P.E) from the selected clones were incubated with anti-c-myc antibody (Roche; Cat. nr. 11667203001), specific to the c-myc tag present in the soluble VHH, for 30 minutes with agitation at room temperature (RT). The mix (P.E + anti-c-myc antibody) was added to the pPAM or pPAMΔ5 domain (cells with deletion of SRCR domain 5) and incubated for 60 min at 4° C. with gentle shaking.
Cells were washed 3x with 150 µl/well of FACS Buffer and incubated with 50 µl/well of the secondary antibody GAM-APC for 30 min at 4° C. and protected from the light, with shaking.

pCD163-SRCR4-7-huFc = biological target: T2, pCD163-SRCR4-7-huFc (porcine, UniProt Q2VL90 372-818, limits assumed); assay: SPR (Biacore 3000), antigen amine-coupled on CM5, VHH injected, pH 7.4
T2 construct: also called pCD163:SRCR4-7-Fc; pCD163-SRCR4-7-Fc; not shown: human Fc (huFc)
Protocol: To assess the affinity of selected purified clones to pCD163, pCD163-SRCR1-9-huFc or pCD163-SRCR4-7-huFc proteins were coated by amine coupling on a CM5 sensor ship (GE Healthcare). Surface plasmon resonance (SPR) (Biacore 3000, GE Healthcare) was used to determine the binding kinetics of selected single domain antibodies at pH7.4. Approximately 2000 RU of pCD163-SRCR1-9-huFc or pCD163-SRCR4-7-huFc, proteins at 20 or 30 µg/ml in Acetate buffer pH 5.0 or pH 5.5 were immobilized onto a CM5 chip using the standard amine coupling procedure.
1x HBS-EP pH 7.4, were utilized as a running buffer during binding kinetic measurements. Purified VHH were injected at 3-fold dilution (300 nM; 100 nM; 33 nM; 11 nM; 3.7 nM; 1.2 nM; 0.4 nM; 0 nM), for 120 s, at a flow rate of 30 µl/min. RU levels were restored to base levels after regeneration with 10 µl of 10 mM NaOH / 1 M NaCl and 10 µl of 10 mM Glycine pH 1.5 between samples. Fitting 1:1 binding with mass transfer was applied to the set sample curves using the simultaneous fitting option of the BIAevaluation software to calculate the kinetic constants of the antibody-antigen interactions including association rate (ka), dissociation rate (kd) and affinity (KD). Curves were removed from the fitting after visual examination of the residuals and considering the value of Chi2: a minimum of 4 curves were considered for the simultaneous fitting.

T2 sequence (Q2VL90 372-818 limits assumed): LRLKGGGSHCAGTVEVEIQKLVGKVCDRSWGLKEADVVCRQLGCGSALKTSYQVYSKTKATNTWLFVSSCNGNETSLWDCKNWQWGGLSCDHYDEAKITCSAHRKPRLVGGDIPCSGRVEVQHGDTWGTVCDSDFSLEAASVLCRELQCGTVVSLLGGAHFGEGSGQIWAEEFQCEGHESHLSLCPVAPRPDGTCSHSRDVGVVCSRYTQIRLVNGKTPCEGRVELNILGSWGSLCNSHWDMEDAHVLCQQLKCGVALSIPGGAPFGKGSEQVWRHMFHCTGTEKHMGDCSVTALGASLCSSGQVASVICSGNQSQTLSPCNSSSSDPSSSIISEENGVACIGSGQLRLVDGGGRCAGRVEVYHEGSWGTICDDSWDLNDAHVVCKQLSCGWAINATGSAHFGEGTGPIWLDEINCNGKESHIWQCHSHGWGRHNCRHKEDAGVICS

Binder	O.D. 450 [1] [O.D. 450]	binding result [2]	Kd (pCD163-SRCR4-7-huFc) [nM]	koff (pCD163-SRCR4-7-huFc) [s⁻¹]	kon (pCD163-SRCR4-7-huFc) [M⁻¹ s⁻¹]
VHH 018 (3E01) (VHH, Llama single domain antibody; also called 49(#18); VHCDR3 49(#18); not shown: tags: c-myc tag in periplasmic extract (ELISA, FACS); FLAG and His tags in purified VHH (SPR, infection assays)) VHH: QVQLQESGGGLVQVGGSLRLSCVASGRAPSRYVMGWFRQAPGQEREFVAGIAWSGRAPYADSVKGRSTISRDNAKNTVYLQMNSLKPEDTGVYYCAGGEGAIRWTTLDAYDYWGQGTQVTVSS	0.057	no binding	42	0.0121	288000
VHH 020 (3H11) (VHH, Llama single domain antibody; also called 48(#20); VHCDR3 48(#20); not shown: tags: c-myc tag in periplasmic extract (ELISA, FACS); FLAG and His tags in purified VHH (SPR, infection assays)) VHH: QVQLQESGGGLVQVGGSLRLSCVASGRTPSRYVMGWFRQAPGQEREFVAGIAWSGRAPYADSVKGRFVISRDSAKNTVYLQMNSLKSEDTGVYYCAGGEGAILWTTPGAYNYWGQGTQVTVSS	0.056	no binding	18.2	0.00843	462000
VHH 019 (3E11) (VHH, Llama single domain antibody; also called 47(#19); VHCDR3 47(#19); not shown: tags: c-myc tag in periplasmic extract (ELISA, FACS); FLAG and His tags in purified VHH (SPR, infection assays)) VHH: QVQLQESGGGLVQVGSSLRLSCVTSGRTPSRYVMGWFRQAPGQEREFVAAISWSGRAPYADSVKGRFTISRDNAKNTVYLQMNSLKPEDTGVYYCAGGEGAIKWTTLDAYDYWGQGTQVTVSS	0.054	no binding	21.1	0.0103	487000
VHH 017 (3D03) (VHH, Llama single domain antibody; also called 29(#17); VHCDR3 29(#17); not shown: tags: c-myc tag in periplasmic extract (ELISA, FACS); FLAG and His tags in purified VHH (SPR, infection assays)) VHH: QLQLVESGGGLVQPGGSLRLSCAASGFTLDDYTIGWFRQAPGKEREGVSCINSITSNTYYADSVKGRFTISRDNAKNTVYLQMNSLTAEDTAIYYCAADSGLFSGSSCLKYRAMRFGSWGQGTQVTVSS	0.053	no binding	22.6	0.00345	153000
VHH 015 (2G01) (VHH, Llama single domain antibody; also called 150(#15); VHCDR3 150(#15); not shown: tags: c-myc tag in periplasmic extract (ELISA, FACS); FLAG and His tags in purified VHH (SPR, infection assays)) VHH: QVQLVESGGGLVQAGDTLRLSCTASGRTFSSYSMGWFRQAPGKEREFVAAITWNGYITNYADSVKGRFTISRDNTKNTVFLQMNSLKPEETAVYYCAATTFSTTSPISRTYNYWGPGTQVTVSS	0.058	no binding	8.01	0.00442	551000
VHH 011 (2B06) (VHH, Llama single domain antibody; also called 57(#11); VHCDR3 57(#11); not shown: tags: c-myc tag in periplasmic extract (ELISA, FACS); FLAG and His tags in purified VHH (SPR, infection assays)) VHH: EVQLVESGGGLVQAGGSLRLSCAASGRTLSVYGTGWFRQAPGKEREFVAGISGTTGSTLYADSVKGRFTISRDNAKNTVYLQMNSLKSEDTALYYCAAGGRVYITTSSWAYWGQGTQVTVSS	0.059	no binding	34.5	0.0151	437000
VHH 023 (4E10) (VHH, Llama single domain antibody; also called 70(#23); VHCDR3 70(#23); not shown: tags: c-myc tag in periplasmic extract (ELISA, FACS); FLAG and His tags in purified VHH (SPR, infection assays)) VHH: QVQLVESGGGLVQAGGSLRLSCVASSRTSSTYAMGWFRQGPGKERDFVAIISFGGTFYADSVKGRFTISRDNAKNTVYLQMNSLKPEDTAVYYCAAGRTLSKRADSYASWGQGTQVTVSS	0.054	no binding	1.52	0.00755	4.96e+06
VHH 001 (1B02) (VHH, Llama single domain antibody; also called 144(#1); VHCDR3 144(#1); not shown: tags: c-myc tag in periplasmic extract (ELISA, FACS); FLAG and His tags in purified VHH (SPR, infection assays)) VHH: EVQLVESGGGLVQAGGSLSLSCAASGGTLAMYAMSWFRQAPGKDRKFVAAINTSGRYSRYADSVKGRFTISRDNAKNTATLQMNSLEPEDTAVYYCAATDKGNWALAMSYDYWGQGTQVTVSS	0.059	no binding	9.26	0.0227	2.46e+06
VHH 012 (2C07) (VHH, Llama single domain antibody; also called 41(#12); VHCDR3 41(#12); not shown: tags: c-myc tag in periplasmic extract (ELISA, FACS); FLAG and His tags in purified VHH (SPR, infection assays)) VHH: QLQLVESGGGLVQAGGSLRLSCVASGRTFSRYAMGWFRQAPGKEREFVAAIAWSTGSTYYANSVKGRFAISGDNAKNTVYLQMNSLKPEDTAVYYCAAETRYCSGFGCLDPRTYGSWGQGTQVTVSS	0.057	no binding	1.51	0.00426	2.83e+06
VHH 002 (1B04) (VHH, Llama single domain antibody; also called 76(#2); VHCDR3 76(#2); not shown: tags: c-myc tag in periplasmic extract (ELISA, FACS); FLAG and His tags in purified VHH (SPR, infection assays)) VHH: QVQLVESGGGLVQAGGSLRLSCAASGLTFVTYSMGWFRQAPGKEREFVAAHRWSGSAYYAEHADSVEGRFTISRDYAKNMLYLQMNSLKHEDTAVYYCAAGVGSAAQYRYWGRGTQVTVSS	0.057	no binding	19	0.0149	787000
VHH 016 (2H11) (VHH, Llama single domain antibody; also called 77(#16); VHCDR3 77(#16); not shown: tags: c-myc tag in periplasmic extract (ELISA, FACS); FLAG and His tags in purified VHH (SPR, infection assays)) VHH: EVQLVESGGGLVQAGGSLRLSCAASGRTFAPGSMGWFRQAPGKEREFVAAHRWSGSAYYADYADSVEGRFTISRDYAKNMVYLQMNSLKPGDTAVYYCAAGVGSAAQYTYWGRGTQVTVSS	0.06	no binding	30	0.00674	224000
VHH 008 (1H01) (VHH, Llama single domain antibody; also called 78(#8); VHCDR3 78(#8); not shown: tags: c-myc tag in periplasmic extract (ELISA, FACS); FLAG and His tags in purified VHH (SPR, infection assays)) VHH: QVQLVESGGGLVQAGGSLRLSCAASGRTFGTYSMGWFRQAPGKEREFVAAHRWSGSAYYAEHADSVEGRFTISRDYAKNMLYLQMNSLKHEDTAVYYCAAGVGSEAQYRYWGRGTQVTVSS	0.06	no binding	34.7	0.00542	156000
